Test results as given in US20080166293A1 (UAB RESEARCH FOUNDATION, published 2008).

Columns and labels:
[1] = molecular target: T1, human transferrin receptor (hTfR) (human, UniProt P02786 1-760); assay: synthetic peptide added to CEF+hTfR cells before HAIYPRH phage; titer of bound phage
T1 construct: whole, on cells; Always presented on CEF+hTfR cells; also called CEF+hTfR cells
Method: (§1) Binding and Competition Studies: Purified phage populations were amplified and were verified to be homogenous through DNA sequencing. Cells were prepared for binding as was described for biopanning procedures. Preparations of plaque-purified and titered phage (1×10¹¹) were incubated in serum-free Opti-MEM on either CEF or CEF+hTfR cells at 4° C. for 1 hour. The cells were washed repeatedly with Opti-MEM and bound phage were eluted with low pH buffer and subsequently titered. […] Multiple trials were completed and average titers and standard deviations determined. The titers determined on CEF+hTfR cells were divided by the titers determined on CEF cells and […] fold over control data points.

[2] = molecular target: T1, human transferrin receptor (hTfR); assay: synthetic peptide added to CEF+hTfR cells before … phage; titer of bound phage
Method: as §1

T1 sequence (P02786 whole entry): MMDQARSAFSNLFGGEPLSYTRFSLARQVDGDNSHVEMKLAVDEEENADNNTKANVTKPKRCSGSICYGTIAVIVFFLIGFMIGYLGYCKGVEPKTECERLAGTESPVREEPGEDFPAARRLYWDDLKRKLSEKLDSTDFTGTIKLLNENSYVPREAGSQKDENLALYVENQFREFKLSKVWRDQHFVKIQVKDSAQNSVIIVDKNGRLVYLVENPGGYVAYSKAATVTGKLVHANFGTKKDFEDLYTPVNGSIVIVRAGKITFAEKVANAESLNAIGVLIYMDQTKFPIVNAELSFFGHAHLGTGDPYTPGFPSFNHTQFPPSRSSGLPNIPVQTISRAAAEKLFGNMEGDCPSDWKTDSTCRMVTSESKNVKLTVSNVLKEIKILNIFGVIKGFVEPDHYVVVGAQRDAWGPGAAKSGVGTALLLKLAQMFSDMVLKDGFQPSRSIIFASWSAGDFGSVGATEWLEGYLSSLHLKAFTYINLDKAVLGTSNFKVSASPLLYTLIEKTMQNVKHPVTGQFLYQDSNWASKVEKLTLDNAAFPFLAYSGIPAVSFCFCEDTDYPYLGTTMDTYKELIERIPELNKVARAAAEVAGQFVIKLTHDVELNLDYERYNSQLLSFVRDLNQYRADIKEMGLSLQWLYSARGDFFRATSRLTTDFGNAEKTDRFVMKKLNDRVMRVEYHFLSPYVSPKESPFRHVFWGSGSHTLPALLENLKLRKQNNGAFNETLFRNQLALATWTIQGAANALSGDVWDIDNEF

Binder	binding result [1]	binding result [2]
HAIYPRH (Synthetic peptide, HPLC purified; also called 7-mer) [HAIYPRH (Seq. ID No. 1) peptide]	binds	–
THRPPMWSPVWP (Synthetic peptide, HPLC purified; also called 12-mer) [THRPPMWSPVWP (Seq. ID No. 2) peptide]	–	binds
